Drawing on article PMC7113306, this text covers Kd for 4 substances.

Like-named read-outs stand apart in the source and are kept apart here.

The target in test [1] is ALK1-Fc ECD (Homo sapiens) (UniProt P37023). The note with it: cited from earlier work.
Test [2] addresses ALK1-Fc (ALK1 extracellular domain-Fc fusion protein) (UniProt P37023). The experiment in a line: SPR; Biacore T100; ALK1-Fc (800 RU) or ALK1 monomer (270 RU) amine-coupled to a CM5 chip; ligands injected at 30 μl min^-1 in 0.01 M HEPES pH 7.4, 0.5 M NaCl, 3 mM EDTA, 0.5 mg ml^-1 BSA, 0.01% P20, 25 °C; 1:1 model with mass transport limitations; KD = kd/ka. (In SPR one partner is held on a chip, and binding of the other changes the refractive index at the surface.)

Test [3] deals with ALK1-Fc ECD (Homo sapiens) (UniProt P37023). The note with it: cited from earlier work. The source holds these as a separate data set.

Sequence of ALK1-Fc (ALK1 extracellular domain-Fc fusion protein) (P37023 22-118): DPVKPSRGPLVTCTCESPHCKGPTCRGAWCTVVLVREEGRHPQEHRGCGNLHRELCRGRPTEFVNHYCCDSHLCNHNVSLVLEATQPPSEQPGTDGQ
Sequence of ALK1-Fc ECD (Homo sapiens) (P37023 22-118): as above
Sequence of BMP9 (Q9UK05 320-429): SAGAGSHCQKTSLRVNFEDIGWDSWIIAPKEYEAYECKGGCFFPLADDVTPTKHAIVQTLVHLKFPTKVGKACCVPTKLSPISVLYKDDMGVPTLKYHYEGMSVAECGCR
Sequence of BMP10 (O95393 317-424): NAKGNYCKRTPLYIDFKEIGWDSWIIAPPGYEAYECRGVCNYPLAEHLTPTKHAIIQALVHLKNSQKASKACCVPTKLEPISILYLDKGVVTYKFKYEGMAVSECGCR

Consider BMP9 (from UniProt Q9UK05), for which the Kd (commonly the constant that tells how readily two partners part at equilibrium) in test [1] was 0.0452 nM. In turn, “BMP9 GF-domain (bone morphogenetic protein 9 growth factor domain) (from UniProt Q9UK05 320-429) (ligand)” had a Kd in test [2] of 0.0481 nM.

In the case of BMP10 (from UniProt O95393), the Kd in test [3] was 0.0103 nM. In turn, “BMP10 GF-domain (bone morphogenetic protein 10 growth factor domain) (from UniProt O95393 317-424) (ligand)” returned a dissociation constant (Kd) in test [2] of 0.0343 nM.
